Assays:
Type in all cases: physicochemical
[1] = 65 mg/mL liquid formulation: appearance and SEC; settings: 65 mg/mL in 10 mM sodium phosphate, 140 mM sodium chloride, pH 6, about 0.06% polysorbate 80
[2] = Lyophilized formulation reconstituted to 100 mg/mL: reconstitution, appearance, SEC; settings: immediately after lyophilization and after 2 wks at 40 deg
Protocol: The solution was filled at 5 mL per vial into 10 mL borosilicate glass vials and fitted with gray butyl rubber lyophilization stoppers. Lyophilization was done using a Virtis Gensis model lyophilizer. The product was frozen at a shelf temperature of −60° C. for 10 hours and then the shelf temperature was raised to −40°. Primary drying was performed at a shelf temperature of −10° C. and a chamber pressure of 100 mTorr for 20 hours. […] The vials were stoppered under vacuum.
The samples were analyzed immediately after lyophilization and after 2 wks of storage in the lyophilized form at 40 deg.

[3] = Agitation-induced precipitation: vials shaken at 150 rotations per minute
[4] = Antibody aggregation with partially degraded polysorbate 80 (shaking and siliconized syringes); settings: control samples without polysorbate 80, same conditions
Protocol: This material was diluted one-to-one with a 10 mg/mL solution of AN100226 in Formulation #2 resulting in a solution containing 0.01% (w/v) polysorbate 80 and 50% of the maximum level of degraded polysorbate 80.

[5] = Protein precipitation facilitated by trace levels of silicone (lubricated polypropylene syringe); settings: adjusted to 0.02% (w/v) polysorbate 80
From the text: The silicone oil was introduced into the product upon use of standard lubricated polypropylene syringes equipped with siliconized rubber stoppers. […] The aggregation, deamidation and subsequent precipitation caused by denaturation at the air-liquid interface has become more discernable problematic with the drug being shipped to more clinical sites. Both causes of protein precipitation have been resolved by the addition of polysorbate 80 at a concentration of 0.02% (w/v).
An evaluation of the ability of 0.02% (w/v) polysorbate 80 to inhibit the protein precipitation facilitated by trace levels of silicone was conducted. […] The material was allowed to stand for several hours at room temperature.

natalizumab
appearance of solution [1]: slightly opalescent but without particulates
appearance of reconstituted solutions ([2]; 100 mg/mL reconstituted): clear and colorless with an absence of particulate material
reconstitution times ([2]; lyophilized from 5 mM histidine, 20 mg/mL sucrose, 0.02% polysorbate 80, pH 6, 1 mL WFI to 100 mg/mL): immediate
appearance of vials after shaking ([3]; 5 mg/mL, Lot No. AN100226-0003 with 0.02% (w/v) polysorbate 80 added, 150 rotations per minute, room temperature, within 3 hours): remained clear and free of particles
particle formation on shaking ([3]; vials completely filled, absence of polysorbate 80, shaken for extended periods of time): without additional particle formation being induced
precipitation of the antibody [4]: significant precipitation
particles after 0.2 μm filtration into 5-mL vial ([5]; after syringe exposure, after several days): substantially free of particles
precipitation by visual inspection ([5]; lubricated 60 mL polypropylene syringe, several hours at room temperature): no precipitation

Reference: patent US8815236B2, “Method for treating multiple sclerosis and crohn's disease” (Biogen Idec MA, Inc., priority 2003, dated 2014)
